Assay [1] addresses T1, DLL1 antigen (recombinant DLL1 protein) (human, UniProt O00548 18-540, limits assumed).
T1 construct: also called Delta-like 1
T1 sequence (looked up): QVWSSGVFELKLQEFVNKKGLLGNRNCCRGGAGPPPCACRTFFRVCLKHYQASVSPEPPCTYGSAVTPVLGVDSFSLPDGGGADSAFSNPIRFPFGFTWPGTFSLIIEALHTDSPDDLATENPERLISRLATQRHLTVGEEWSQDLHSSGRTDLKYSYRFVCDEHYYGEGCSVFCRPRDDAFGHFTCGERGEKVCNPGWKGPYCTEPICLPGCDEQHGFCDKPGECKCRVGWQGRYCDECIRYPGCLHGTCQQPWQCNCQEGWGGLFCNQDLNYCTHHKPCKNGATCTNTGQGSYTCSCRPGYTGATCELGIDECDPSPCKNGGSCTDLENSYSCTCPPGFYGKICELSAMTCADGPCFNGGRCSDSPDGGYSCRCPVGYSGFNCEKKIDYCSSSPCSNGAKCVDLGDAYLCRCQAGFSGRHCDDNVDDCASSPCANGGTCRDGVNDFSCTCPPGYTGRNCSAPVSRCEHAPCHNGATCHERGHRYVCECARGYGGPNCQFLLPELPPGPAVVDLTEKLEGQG
Put plainly: sandwich ELISA, capture AbD33905, detection AbD33905-HRP, DLL1 2 ug/ml. For orientation: An ELISA detects its analyte on a solid surface through an enzyme-linked reagent.
Method: (§1) As control coating a-Fd (Bio-Rad antibodies, STAR126) at 5 μg/ml in PBS was used. Per well a volume of 20 μl coating solution was used. The Polystyrene ELISA plates were then incubated overnight at 4° C. with a closed lid. […] Subsequently, blocking of non-specific binding sites was performed with 100 μl per well of PBST containing 5% (w/v) BSA (Sigma-Aldrich, A7906-100). This blocking step was conducted at RT for 1-2 h. After removal of the blocking solution, five washes with PBST were performed. Thereafter, 2 μg/ml DLL1 antigen in PBST were added or PBST only (20 μl per well, triplicates were prepared). Incubation with the DLL1 antigen solution or PBST was performed at RT for 1 h. Next, the DLL1 antigen solution or PBST were removed and five washes with PBST were performed. […] After removal of this solution, ten washes with PBST were performed. […] For detection in the ELISA reader (Tecan Infinite M1000Pro Reader, Tecan Austria GmbH) excitation was performed at 320±25 nm and emission was detected at 430±35 nm.

Assay [2] addresses T1, DLL1 antigen (recombinant DLL1 protein). Put plainly: sandwich ELISA, capture AbD33905, detection AbD33906-HRP, DLL1 2 ug/ml.
Method: as §1
The target of assay [3] is GST. Nature of the assay: ELISA on antigen coated at 5 ug/ml, anti-Strep-HRP secondary antibody.
Chain of GST (P08515 2-218): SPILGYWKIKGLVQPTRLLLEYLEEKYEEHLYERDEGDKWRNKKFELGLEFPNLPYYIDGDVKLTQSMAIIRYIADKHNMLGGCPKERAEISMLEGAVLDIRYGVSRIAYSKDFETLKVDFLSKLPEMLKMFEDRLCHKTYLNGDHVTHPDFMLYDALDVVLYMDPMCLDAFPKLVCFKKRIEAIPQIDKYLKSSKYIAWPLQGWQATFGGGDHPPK
Method: (§2) The binding specificity of AbD33905 in form of a bivalent Fab fragment fused to alkaline phosphatase followed by a FLAG®-tag and Twin-Strep®-tag was tested in the following ELISA:
(§3) Per well a volume of 20 μl coating solution was used. The Polystyrene ELISA plates were then incubated overnight at 4° C. with a closed lid. […] Subsequently, blocking of non-specific binding sites was performed with 100 μl per well of PBST containing 5% (w/v) non-fat dry milk. This blocking step was conducted at RT for 1-2 h. After removal of the blocking solution, five washes with PBST were performed. Thereafter, AbD33905 in form of a bivalent Fab fragment fused to alkaline phosphatase followed by a FLAG®-tag and Twin-Strep®-tag in PBST was added (20 μl per well). Incubation with this AbD33905 Fab fragment was performed at RT for 1 h. Next, the AbD33905 Fab fragment containing solution was removed and five washes with PBST were performed. Thereafter 20 μl/well of 2 μg/ml anti-Strep-HRP secondary antibody (Bio-Rad antibodies, MCA2489P, 1:5000) in HISPEC assay diluent (Bio-Rad Antibodies, BUF049) were added and incubated at RT for 1 h. After removal of this solution, ten washes with PBST were performed. […] For detection in the ELISA reader (Tecan Infinite M1000Pro Reader, Tecan Austria GmbH) excitation was performed at 320±25 nm and emission was detected at 430±35 nm.
The target of assay [4] is T1, DLL1 antigen (recombinant DLL1 protein). The assay is described as above.
Method: as §2, §3
The target in assay [5] is bovine serum albumin (BSA) (bovine, UniProt P02769 25-607). The assay is described as above.
Chain of bovine serum albumin (BSA) (P02769 25-607 limits assumed): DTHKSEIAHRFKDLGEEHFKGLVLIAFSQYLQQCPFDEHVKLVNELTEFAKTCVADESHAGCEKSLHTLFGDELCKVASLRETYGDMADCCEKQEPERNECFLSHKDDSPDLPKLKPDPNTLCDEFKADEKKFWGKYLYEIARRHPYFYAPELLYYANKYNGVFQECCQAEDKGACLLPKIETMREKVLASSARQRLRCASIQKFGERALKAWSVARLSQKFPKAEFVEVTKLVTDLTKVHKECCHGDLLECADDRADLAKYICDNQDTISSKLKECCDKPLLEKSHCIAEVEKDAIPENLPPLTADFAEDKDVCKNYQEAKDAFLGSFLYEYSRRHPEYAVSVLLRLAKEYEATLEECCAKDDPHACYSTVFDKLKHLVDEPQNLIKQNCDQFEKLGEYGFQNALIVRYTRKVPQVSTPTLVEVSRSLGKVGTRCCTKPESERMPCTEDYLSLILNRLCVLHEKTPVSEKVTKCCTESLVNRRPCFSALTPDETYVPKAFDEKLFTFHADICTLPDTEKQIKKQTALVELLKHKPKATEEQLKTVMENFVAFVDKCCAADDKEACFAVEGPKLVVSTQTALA
Method: as §2, §3
The target in assay [6] is N1-CD33-His6. The description is as above.
Method: as §2, §3
Assay [7] deals with T1, DLL1 antigen (recombinant DLL1 protein). Put plainly: sandwich ELISA, capture AbD33906, detection AbD33906-HRP, DLL1 2 ug/ml.
Method: as §1
Assay [8] has the same target. Put plainly: sandwich ELISA, capture AbD33906, detection AbD33905-HRP, DLL1 2 ug/ml.
Method: as §1

Consider 3 molecules from US20250052768A1 (UNIVERSIT T HEIDELBERG, published 2025).

B1: AbD33905 (Fab fragment, monovalent) (Fab, V domains shown)
VH: EVQLLESGGGLVQPGGSLRLSCAASGFTFSSYAMHWVRQAPGKGLEWVSFISSGGSTTYYADSVKGRFTISRDNSKNTLYLQMNSLRAEDTAVYYCARFRSGYFDYWGQGTLVTVSS
VL: DIVMTQSPLSLPVTPGEPASISCRSSQSLVHSNGADYLNWYLQKPGQSPQLLIYKGSNRDSGVPDRFSGSGSGTDFTLKISRVEAEDVGVYYCQQGYDFPPFTFGQGTKVEIKR
notes: Monovalent Fab; also called Ab33905; monovalent AbD33905
For B1, the “emission value DLL1 antigen/emission value PBST” value was 8 ratio in assay [1] and 66 ratio in assay [2].

B2: AbD33905 in form of a bivalent Fab fragment fused to alkaline phosphatase followed by a FLAG-tag and Twin-Strep-tag (Fab, V domains shown)
VH: EVQLLESGGGLVQPGGSLRLSCAASGFTFSSYAMHWVRQAPGKGLEWVSFISSGGSTTYYADSVKGRFTISRDNSKNTLYLQMNSLRAEDTAVYYCARFRSGYFDYWGQGTLVTVSS
VL: DIVMTQSPLSLPVTPGEPASISCRSSQSLVHSNGADYLNWYLQKPGQSPQLLIYKGSNRDSGVPDRFSGSGSGTDFTLKISRVEAEDVGVYYCQQGYDFPPFTFGQGTKVEIKR
notes: it is put on the heavy chain here; also called AbD33905 bivalent Fab fragment; not shown: alkaline phosphatase, then FLAG-tag and Twin-Strep-tag
For B2, the Emission data was 70 arbitrary units in assay [3], 15500 arbitrary units in assay [4], 71 arbitrary units in assay [5] and 46 arbitrary units in assay [6].

B3: AbD33906 (Fab fragment, monovalent) (Fab, V domains shown)
VH: QVQLVQSGAEVKKPGSSVKVSCKASGGTFSSYAISWVRQAPGQGLEWMGGIIPQFGIANYAQKFQGRVTITADESTSTAYMELSSLRSEDTAVYYCAREGYSDYSAFDYWGQGTLVTVSS
VL: DIALTQPASVSGSPGQSITISCTGTSSDVGTYNYVNWYQQHPGKAPKVMIYRVSNRPSGVSNRFSGSKSGNTASLTISGLQAEDEADYYCSSWDEHSYVFGGGTKLTVLG
notes: also called AbD33906 Fab fragments
Turning to B3, the entries for the “emission value DLL1 antigen/emission value PBST” value in assay [7] and in assay [8] were 7 ratio and 132 ratio, respectively.
